The values below come from patent US20230067757A1 (NOVAROCK BIOTHERAPEUTICS, published 2023).

Read-outs that look alike come from different tables or passages of the source. Bounds are passed on as bounds.

Test [1] deals with T1, human claudin 18 isoform 2 (claudin 18.2) (human).
T1 construct: Recombinant on transfected CHO cells (CHO-CLDN18.2) or endogenous on tumor cell lines PATU8988S, NUGC-4, KATOIII; the cell line is named under assay; also called CLDN18.2
Description: immunofluorescence imaging, CHO-CLDN18.2 cells (FIG. 3C); Table 6 prints 1.3. The procedure:
(§1) The specific cellular binding affinity of anti-Claudin18.2 antibodies was tested on CHO-CLDN18.2 (transfected CHO cell expressing recombinant human CLDN18.2) and CHO-CLDN18.1 (transfected CHO cell expressing recombinant human CLDN18.1) cells. The cells were plated in complete media containing F12 with 10% FBS, then incubated overnight at 37° C., anti-Claudin18.2 antibodies were serial diluted and added to the assay plates, incubated at 4° C. for 2 hours, followed by fixing cells and further staining the cells for 30 minutes with Alexa Fluor® 488 Goat Anti-Human IgG (H+L) secondary antibody, invitrogen Cat #A-11013 for detection. The binding was assessed by imaging the cells and quantifying the fluorescence intensity using a Biotek Cytation.

Test [2] addresses T1, human claudin 18 isoform 2 (claudin …). The test is described as follows: immunofluorescence imaging, CHO-CLDN18.2 cells, serial dilution. The method in brief:
(§2)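 Binding on CHO cells transfected with human CLDN18.2, with human CLDN18.1 transfectants as counter-screen, plated overnight at 37° C. Serially diluted antibodies incubated 2 h at 4° C; fixed cells stained 30 min with Alexa Fluor 488 anti-human IgG and fluorescence intensity quantified by imaging.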

Test [3] has the same target. The test is described as follows: cell-based or functional assay.
For test [4], the target named is T2, human claudin 18 isoform 1 (claudin 18.1) (human, UniProt P56856 1-261).
T2 construct: Recombinant on transfected CHO cells (CHO-CLDN18.1); also called CLDN18.1
T2 sequence (P56856 whole entry, canonical isoform): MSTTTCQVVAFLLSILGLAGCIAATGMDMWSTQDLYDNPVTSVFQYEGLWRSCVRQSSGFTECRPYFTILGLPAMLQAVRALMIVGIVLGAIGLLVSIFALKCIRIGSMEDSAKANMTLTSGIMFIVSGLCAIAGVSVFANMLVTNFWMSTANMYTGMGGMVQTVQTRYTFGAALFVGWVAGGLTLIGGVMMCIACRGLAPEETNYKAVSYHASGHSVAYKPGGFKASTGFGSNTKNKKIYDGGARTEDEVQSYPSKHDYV
The test is described as follows: immunofluorescence imaging on CHO cells expressing human CLDN18.1, antibody at 10 µg/ml. Summed up:
as §2

In test [5] the target is T1, human claudin 18 isoform 2 (claudin …). The test is described as follows: cell-based or functional assay. The source holds these as a separate data set.
Test [6] shares this target. The test is described as follows: imaging, PATU8988S cells (endogenous CLDN18.2); +++ = EC50 between 2 nM and 20 nM. As for the experimental part: Tumor cells were plated in complete media containing RPMI1640 with +10% FBS, then incubated overnight at 37° C., Claudin18.2 antibodies were serial diluted and added to the assay plates, incubated at 4° C. for 2 hours, followed by fixing cells and further staining the cells for 30 minutes with Alexa Fluor® 488 Goat Anti-Human IgG (H+L) secondary antibody (invitrogen Cat #A-11013) for detection. The binding was assessed by imaging the cells and quantifying the fluorescence intensity using a Biotek Cytation.

Test [7] shares this target. The test is described as follows: imaging, PATU8988S cells (endogenous CLDN18.2); ++ = EC50 between 20 nM and 100 nM.
The target is the same in test [8]. Description: cell-based or functional assay. The source holds these as a separate data set.
For test [9] the target is unchanged. Description: immunofluorescence imaging, CHO-CLDN18.2 cells (FIG. 3B); Table 5 prints 3.0. As for the experimental part:
as §1

The target is the same in test [10]. The test is described as follows: imaging, PATU8988S cells (endogenous CLDN18.2); ++++ = EC50 less than 2 nM.
Test [11] shares this target. Description: immunofluorescence imaging, CHO-CLDN18.2 cells (FIG. 3C); Table 5 prints 0.8. The procedure:
as §1

Test [12] addresses T2, human claudin 18 isoform 1 (claudin …). Description: imaging, CHO-CLDN18.1 cells, dose titration. As for the experimental part: as §1
For test [13], the target named is T1, human claudin 18 isoform 2 (claudin …). Description: immunofluorescence imaging, CHO-CLDN18.2 cells; low end tied to Hu-18 by Table 6 (0.8). As for the experimental part: as §1

B1: Hu-3 (antibody, V domains shown)
VH: QLQLQESGPGLVKPSETLSLTCTVSDGPISSSRYYWGWIRQPPGKGLEWIGSFHYSGSTYYNPSLKSRVTISADTSKNQFSLKLSSVTAADTAVYYCARLVLRYFDWLGFFDLWGRGTLVTVSS
VL: EIVMTQSPAILSLSPGERAALSCRASQSVRSSYLSWYQQKPGQAPRLLIYGTSTRATGIPARFSGSGSGTDFTLTISSLQPEDFAVYYCQQDYNLPITFGQGTRLEFK
Turning to B1, the EC50 was 1.34 nM in test [1], 1.3 nM in test [2] and 2 to 20 nM in test [6]. Besides, the “endocytosis derived cell toxicity EC50, CHO-18.2 cells (anti-IgG Fc-MMAF co-internalization)” value (“endocytosis derived cell toxicity EC50” for short) in test [3] stood at 1.23 nM. Besides, the binding result in test [4] is “no binding (tested: 10 µg/ml)”. Also, the “ADCC EC50, CHO-18.2 target cells (mouse FcγRIV reporter bioluminescence)” value in test [5] came out at 3.11 nM.

B2: Ms2 (antibody, V domains shown)
VH: QVQLKESGPGLVAPSQSLSITCTVSGFSLTSYGVHWVRQPPGKGLEWLGVIWAGGSTNYNSALMSRLSISKDNSKSQVFLKMNSLQTDDTAMYYCARDFTTATGFDYWGQGTTLTVSS
VL: DIVMTQSPSSLSVSAGEKVTMSCKSSQSLLNSGNQKNYLAWYQQKPGQPPKLLIYGASTRESGVPDRFTGSGSGTDFTLTISSVQAEDLAVYYCQNDHSYPFTFGSGTKLEIK
In the case of B2, the EC50 was 20 to 100 nM in [7], 3 nM in test [2] and 2.8 nM in test [9]. Besides, the “endocytosis derived cell toxicity EC50” value in test [8] came to 2.55 nM. The binding result in test [4] is on record as “no binding (tested: 10 µg/ml)”.

B3: Ms4 (antibody, V domains shown)
VH: EVQLQQSGPELEKPGASVKISCKASGYSFTGYNMNWVKQSNGKSLEWIGNIDPYYGGTRYNQKFKGKATLTVDRSSSTAYMQLKSLTSEDSAVYYCARLGLGNAMDYWGQGTSVTVSS
VL: DIVMTQSPSFLTVTAGEKVTMSCKSSQSLLNSGNQKSYLTWYQQKPGQPPKLLIYWASTRESGVPDRFTGSGSGTDFTLTISSVQAEDLAVYYCQNDYYYPFTFGSGTELEIK
As for B3, the “endocytosis derived cell toxicity EC50” value in test [8] was 0.98 nM. Besides, the EC50 was 0.8 nM in test [2], less than 2 nM in [10] and 0.75 nM in test [11]. Also, the binding result in [4] is reported as “no binding (tested: 10 µg/ml)”.

B4: Hu-18 (antibody, V domains shown)
VH: QVQLVQSGAEVKKPGASVKVSCRVSGYTLSALSMYWVRQAPGKGLEWMGGFDPEDGKTIYAQKFQGRVTMTEDTSTGTAYMELSSLRSEDTAIYYCATTLRYFDWNYWGQGTPVTVSS
VL: DIVMTQTPLSSPVTLGQPASISCRSSQSLVHSDGNTYLSWLQQRPGQPPRLLIYKVSKRFSGVPDRFSGSGAGTDFTLKISRVEAEDVGVYYCTQGTQFPRTFGQGTKVEIK
notes: Human V regions (Trianni mice)
In the case of B4, the EC50 worked out at 0.8 nM in [2] and 0.77 nM in [13]. Besides, in test [12], the binding result was “no binding (tested: 133.4 nM)”.

One may read the EC50 as the concentration needed to bring the measured effect to its halfway point.
